Data as given in US20090298769A1.

Tests used:
[1] = target: αvβ3 integrin, wild type, on mouse lung endothelial cells (mouse) (UniProt P43406); assay: flow cytometry, FITC-fibrinogen on WT mouse lung EC
[2] = target: DiYF β3 integrin (αvβ3 with β3 Tyr747Phe and Tyr759Phe) on lung endothelial cells of knock-in mice (mouse) (UniProt P43406); assay: flow cytometry, FITC-fibrinogen on DiYF mouse lung EC
[3] = target: VEGFR-2 of mouse lung endothelial cells (mouse) (UniProt P35918); assay: cell-based or functional assay
Chain of VEGFR-2 of mouse lung endothelial cells (mouse) (P35918 20-1345): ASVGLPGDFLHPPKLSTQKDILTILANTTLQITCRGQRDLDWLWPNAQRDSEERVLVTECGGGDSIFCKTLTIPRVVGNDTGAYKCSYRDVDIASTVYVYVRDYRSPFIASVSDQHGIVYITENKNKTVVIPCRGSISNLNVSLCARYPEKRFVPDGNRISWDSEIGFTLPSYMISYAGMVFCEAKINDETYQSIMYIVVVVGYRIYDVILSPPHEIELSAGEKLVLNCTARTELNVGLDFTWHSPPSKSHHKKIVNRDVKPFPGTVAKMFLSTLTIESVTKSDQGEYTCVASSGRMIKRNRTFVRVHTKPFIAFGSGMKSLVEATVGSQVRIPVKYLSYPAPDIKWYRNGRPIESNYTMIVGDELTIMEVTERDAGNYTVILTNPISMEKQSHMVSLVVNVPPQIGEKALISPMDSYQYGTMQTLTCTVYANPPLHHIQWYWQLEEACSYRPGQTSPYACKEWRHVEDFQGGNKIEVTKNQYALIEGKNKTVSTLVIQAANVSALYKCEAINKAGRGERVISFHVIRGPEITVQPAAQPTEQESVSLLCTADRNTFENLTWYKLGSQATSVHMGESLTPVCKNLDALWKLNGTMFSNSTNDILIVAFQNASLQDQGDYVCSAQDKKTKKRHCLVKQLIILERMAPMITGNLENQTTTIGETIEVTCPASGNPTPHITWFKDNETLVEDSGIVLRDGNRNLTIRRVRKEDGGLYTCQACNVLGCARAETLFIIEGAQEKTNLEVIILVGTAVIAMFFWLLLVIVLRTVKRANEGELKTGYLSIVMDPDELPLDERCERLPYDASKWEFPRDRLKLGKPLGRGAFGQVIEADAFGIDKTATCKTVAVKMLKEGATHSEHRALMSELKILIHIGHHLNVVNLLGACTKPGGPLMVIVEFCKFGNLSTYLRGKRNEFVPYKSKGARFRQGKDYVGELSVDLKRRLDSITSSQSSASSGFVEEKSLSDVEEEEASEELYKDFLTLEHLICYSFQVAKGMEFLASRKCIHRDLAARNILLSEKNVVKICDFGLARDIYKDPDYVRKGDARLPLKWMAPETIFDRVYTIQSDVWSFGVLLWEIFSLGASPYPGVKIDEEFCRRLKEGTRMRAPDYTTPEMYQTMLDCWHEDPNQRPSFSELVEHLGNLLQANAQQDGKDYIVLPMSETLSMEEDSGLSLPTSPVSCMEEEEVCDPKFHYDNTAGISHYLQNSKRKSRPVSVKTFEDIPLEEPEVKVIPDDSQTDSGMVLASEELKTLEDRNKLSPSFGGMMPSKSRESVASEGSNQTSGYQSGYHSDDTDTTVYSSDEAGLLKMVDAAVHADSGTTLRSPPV

[4] = target: αvβ3 integrin on human endothelial cells (HUVEC; vessels of human prostate tissue) (human) (UniProt P06756); assay: flow cytometry (FACS), WOW-1 Fab on HUVEC
Chain of αvβ3 integrin on human endothelial cells (HUVEC; vessels of human prostate tissue) (human) (P06756 31-1048, chain 1 of 2): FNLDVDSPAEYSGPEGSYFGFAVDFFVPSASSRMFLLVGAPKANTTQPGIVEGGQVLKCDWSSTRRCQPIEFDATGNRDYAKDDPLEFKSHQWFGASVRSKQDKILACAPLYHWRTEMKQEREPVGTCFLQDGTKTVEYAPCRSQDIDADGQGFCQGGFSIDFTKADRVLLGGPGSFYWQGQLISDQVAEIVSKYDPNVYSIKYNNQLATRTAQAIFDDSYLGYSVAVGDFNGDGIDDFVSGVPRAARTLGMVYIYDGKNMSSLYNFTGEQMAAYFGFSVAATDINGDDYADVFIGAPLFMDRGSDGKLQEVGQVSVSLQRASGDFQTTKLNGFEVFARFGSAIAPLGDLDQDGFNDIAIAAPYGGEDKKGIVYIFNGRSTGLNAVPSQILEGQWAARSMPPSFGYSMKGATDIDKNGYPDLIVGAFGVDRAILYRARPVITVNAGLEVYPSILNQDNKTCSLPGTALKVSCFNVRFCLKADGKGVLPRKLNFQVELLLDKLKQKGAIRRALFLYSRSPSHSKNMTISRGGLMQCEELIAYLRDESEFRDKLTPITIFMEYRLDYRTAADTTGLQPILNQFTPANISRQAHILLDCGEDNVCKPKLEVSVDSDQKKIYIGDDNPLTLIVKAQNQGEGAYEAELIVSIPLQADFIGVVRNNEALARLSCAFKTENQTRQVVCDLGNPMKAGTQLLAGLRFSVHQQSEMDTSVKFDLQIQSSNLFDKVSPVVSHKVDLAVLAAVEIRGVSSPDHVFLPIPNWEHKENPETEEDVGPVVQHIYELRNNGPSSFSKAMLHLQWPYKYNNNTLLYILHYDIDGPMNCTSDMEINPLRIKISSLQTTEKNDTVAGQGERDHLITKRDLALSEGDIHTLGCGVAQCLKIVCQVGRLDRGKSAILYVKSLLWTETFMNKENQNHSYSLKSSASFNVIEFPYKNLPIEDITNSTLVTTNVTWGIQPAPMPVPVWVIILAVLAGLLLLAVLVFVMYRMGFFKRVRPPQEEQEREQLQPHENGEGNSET
Chain of αvβ3 integrin on human endothelial cells (HUVEC; vessels of human prostate tissue) (human) (P05106 27-788, chain 2 of 2, further chain): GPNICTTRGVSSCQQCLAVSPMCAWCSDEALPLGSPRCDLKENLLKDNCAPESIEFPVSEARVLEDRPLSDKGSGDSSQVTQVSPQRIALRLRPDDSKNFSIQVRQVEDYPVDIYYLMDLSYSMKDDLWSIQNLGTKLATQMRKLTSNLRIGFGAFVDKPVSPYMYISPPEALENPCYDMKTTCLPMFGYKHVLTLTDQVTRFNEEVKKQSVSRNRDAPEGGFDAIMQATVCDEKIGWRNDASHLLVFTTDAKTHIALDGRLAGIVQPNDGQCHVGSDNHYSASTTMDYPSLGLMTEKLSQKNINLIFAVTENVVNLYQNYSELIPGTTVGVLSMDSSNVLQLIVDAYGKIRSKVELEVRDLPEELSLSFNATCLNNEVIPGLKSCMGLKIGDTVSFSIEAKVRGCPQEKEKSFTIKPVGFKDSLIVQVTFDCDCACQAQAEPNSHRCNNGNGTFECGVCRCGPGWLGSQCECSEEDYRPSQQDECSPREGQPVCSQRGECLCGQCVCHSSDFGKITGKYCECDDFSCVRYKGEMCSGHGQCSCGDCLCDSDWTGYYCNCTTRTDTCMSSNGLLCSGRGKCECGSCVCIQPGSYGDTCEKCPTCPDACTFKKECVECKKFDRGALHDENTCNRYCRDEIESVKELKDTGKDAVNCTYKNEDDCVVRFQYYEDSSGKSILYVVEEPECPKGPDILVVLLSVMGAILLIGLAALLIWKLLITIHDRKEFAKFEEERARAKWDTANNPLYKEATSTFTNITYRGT

[5] = target: αvβ3 integrin on human endothelial cells (HUVEC; vessels of human prostate tissue) (human) (UniProt P06756); assay: immunohistochemistry of human prostate tissue
[6] = target: DiYF β3 integrin (αvβ3 with β3 Tyr747Phe and Tyr759Phe) on lung endothelial cells of knock-in mice (mouse) (UniProt P43406); assay: flow cytometry, WOW-1 Fab on DiYF mouse lung EC
[7] = target: αvβ3 integrin on human endothelial cells (HUVEC; vessels of human prostate tissue) (human) (UniProt P06756); assay: flow cytometry, WOW-1 Fab on HUVEC transfected with dominant negative c-Src
[8] = target: αvβ3 integrin, wild type, on mouse lung endothelial cells (mouse) (UniProt P43406); assay: flow cytometry, WOW-1 Fab on WT mouse lung EC
[9] = target: αvβ3 integrin on human endothelial cells (HUVEC; vessels of human prostate tissue) (human) (UniProt P06756); assay: flow cytometry, WOW-1 Fab on HUVEC
[10] = target: DiYF β3 integrin (αvβ3 with β3 Tyr747Phe and Tyr759Phe) on lung endothelial cells of knock-in mice (mouse) (UniProt P43406); assay: cell-based or functional assay

Chain of αvβ3 integrin, wild type, on mouse lung endothelial cells (mouse) (P43406 31-1044, chain 1 of 2): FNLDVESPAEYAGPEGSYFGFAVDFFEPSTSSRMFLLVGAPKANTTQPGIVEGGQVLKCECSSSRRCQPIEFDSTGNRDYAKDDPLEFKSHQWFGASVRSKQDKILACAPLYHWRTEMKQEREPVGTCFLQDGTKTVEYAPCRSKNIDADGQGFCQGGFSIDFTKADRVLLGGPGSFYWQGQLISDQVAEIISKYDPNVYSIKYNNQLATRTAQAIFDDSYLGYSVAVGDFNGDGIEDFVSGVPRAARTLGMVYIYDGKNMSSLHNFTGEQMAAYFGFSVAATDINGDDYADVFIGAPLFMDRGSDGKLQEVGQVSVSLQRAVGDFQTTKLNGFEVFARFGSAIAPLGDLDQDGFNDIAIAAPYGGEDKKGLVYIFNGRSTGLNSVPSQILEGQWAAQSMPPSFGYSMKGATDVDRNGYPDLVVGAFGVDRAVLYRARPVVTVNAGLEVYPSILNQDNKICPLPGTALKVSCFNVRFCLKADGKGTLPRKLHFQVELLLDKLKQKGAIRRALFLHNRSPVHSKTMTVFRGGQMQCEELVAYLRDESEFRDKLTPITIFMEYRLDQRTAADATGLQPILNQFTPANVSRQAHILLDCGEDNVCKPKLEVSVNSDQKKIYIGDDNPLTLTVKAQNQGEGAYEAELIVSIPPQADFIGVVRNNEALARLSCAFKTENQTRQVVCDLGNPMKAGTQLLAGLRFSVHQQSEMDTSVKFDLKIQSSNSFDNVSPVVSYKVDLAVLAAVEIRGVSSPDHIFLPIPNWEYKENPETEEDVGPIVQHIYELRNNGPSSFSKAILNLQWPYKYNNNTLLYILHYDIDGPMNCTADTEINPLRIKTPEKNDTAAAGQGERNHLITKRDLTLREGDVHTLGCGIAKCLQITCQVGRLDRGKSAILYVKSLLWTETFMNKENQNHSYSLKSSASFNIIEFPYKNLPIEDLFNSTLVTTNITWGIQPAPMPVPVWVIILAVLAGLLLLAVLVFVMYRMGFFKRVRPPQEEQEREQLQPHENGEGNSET
Chain of αvβ3 integrin, wild type, on mouse lung endothelial cells (mouse) (O54890 26-787, chain 2 of 2, further chain): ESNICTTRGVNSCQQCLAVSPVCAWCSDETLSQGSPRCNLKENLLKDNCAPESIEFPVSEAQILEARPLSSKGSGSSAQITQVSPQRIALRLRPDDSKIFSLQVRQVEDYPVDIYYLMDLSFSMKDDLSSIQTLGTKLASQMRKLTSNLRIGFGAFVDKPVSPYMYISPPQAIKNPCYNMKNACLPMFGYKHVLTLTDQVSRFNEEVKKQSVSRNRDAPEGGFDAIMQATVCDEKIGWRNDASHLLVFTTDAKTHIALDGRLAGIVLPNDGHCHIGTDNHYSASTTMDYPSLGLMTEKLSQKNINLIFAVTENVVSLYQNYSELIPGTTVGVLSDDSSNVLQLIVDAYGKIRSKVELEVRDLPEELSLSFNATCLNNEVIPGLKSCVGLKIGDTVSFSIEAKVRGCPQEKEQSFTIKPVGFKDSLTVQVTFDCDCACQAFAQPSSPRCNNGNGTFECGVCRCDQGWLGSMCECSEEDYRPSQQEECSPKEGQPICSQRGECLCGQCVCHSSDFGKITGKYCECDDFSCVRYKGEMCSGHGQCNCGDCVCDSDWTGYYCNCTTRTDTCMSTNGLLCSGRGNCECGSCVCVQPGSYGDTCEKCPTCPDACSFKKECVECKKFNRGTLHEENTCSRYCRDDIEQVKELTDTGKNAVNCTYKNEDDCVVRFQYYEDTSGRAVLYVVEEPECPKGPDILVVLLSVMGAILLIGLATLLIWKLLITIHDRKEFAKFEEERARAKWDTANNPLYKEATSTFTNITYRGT

Which results are given for FITC-labeled fibrinogen (ligand)?
fold increase of binding on MnCl2 stimulation [1]: > 40 fold; fold increase of binding on VEGF stimulation [1]: > 6 fold; fold increase of binding on MnCl2 stimulation [2]: 17 fold; fold increase of binding on VEGF stimulation [2]: 3 fold

With VEGF-A165 (ligand) as the substance, how does the VEGFR-2 phosphorylation in DiYF EC [3] read?
The VEGFR-2 phosphorylation in DiYF EC was 2.5 fold.

And the VEGFR-2 phosphorylation in WT EC [3]?
Its VEGFR-2 phosphorylation in WT EC is 6 fold.

WOW-1 Fab was tested. Which fold increase of binding on VEGF-A165 stimulation [4] did it give?
The fold increase of binding on VEGF-A165 stimulation was 6 fold.

And the fold increase of WOW-1 density, prostate carcinoma against normal prostate tissue [5]?
Its fold increase of WOW-1 density, prostate carcinoma against normal prostate tissue is 2.7 fold.

And the fold increase of binding on MnCl2 stimulation [6]?
The fold increase of binding on MnCl2 stimulation was 14 fold.

And the fold increase of binding on VEGF stimulation [6]?
Its fold increase of binding on VEGF stimulation is 3.5 fold.

And the fold reduction of VEGF-triggered αvβ3 activation (WOW-1 binding) by dominant negative c-Src [7]?
The fold reduction of VEGF-triggered αvβ3 activation (WOW-1 binding) by dominant negative c-Src was over 2 fold.

What about the fold increase of binding on MnCl2 stimulation [8] of the same substance?
Its fold increase of binding on MnCl2 stimulation is 30 fold.

And the fold increase of binding on VEGF stimulation [8]?
The fold increase of binding on VEGF stimulation was 9 fold.

And the fold increase of binding on VEGF stimulation [9]?
Its fold increase of binding on VEGF stimulation is 6 fold.

How did the fold decrease in cell adhesion to vitronectin, DiYF EC against WT EC [10] turn out when vitronectin (ligand) was run?
Its fold decrease in cell adhesion to vitronectin, DiYF EC against WT EC is 2 fold.
